Data from the supplement of paper PMC7125110.
± gives the standard error. For part of these data: Variants at the floor of the assay were thinned out.

B1: glmS ribozyme (parent)
chain: AUAAAAGCGCCAGAACUACAGAAAUGUAGUUGACGAGGAGGAGGUUUAUCGAAUUUUCGGCGGAUGCCUCCAAA

Assays:
Details in all cases: with glucosamine-6-phosphate
glucosamine-6-phosphate [1] = variants of: B1; assay: kcat; higher = faster cleavage; RNA array
Procedure, shortened: (§1)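 E. coli RNA polymerase transcribed barcoded ribozyme variants in situ on sequenced MiSeq chips, which were tracked via a hybridised Cy3 probe at 37 °C. Tiles were imaged over ~14 h after glucosamine-6-phosphate (40 μM to 10 mM) in HEPES/KCl/Mg(OAc)2 buffer was flowed in. Normalised per-tile medians were fit to one- or two-exponential decays for kobs, and kcat and KM came from weighted Michaelis–Menten fits.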

glucosamine-6-phosphate [2] = variants of: B1; assay: KM; higher = weaker cofactor use; RNA array
Procedure, shortened: as §1

glucosamine-6-phosphate [3] = variants of: B1; assay: self-cleavage kobs at 40 uM GlcN6P; higher = faster cleavage; RNA array
Procedure, shortened: as §1

glucosamine-6-phosphate [4] = variants of: B1; assay: self-cleavage kobs at 160 uM GlcN6P; higher = faster cleavage; RNA array
Procedure, shortened: as §1

glucosamine-6-phosphate [5] = variants of: B1; assay: self-cleavage kobs at 640 uM GlcN6P; higher = faster cleavage; RNA array
Procedure, shortened: as §1

glucosamine-6-phosphate [6] = variants of: B1; assay: self-cleavage kobs at 2500 uM GlcN6P; higher = faster cleavage; RNA array
Procedure, shortened: as §1

glucosamine-6-phosphate [7] = variants of: B1; assay: self-cleavage kobs at 10000 uM GlcN6P; higher = faster cleavage; RNA array
Procedure, shortened: as §1

Row | Variant | kcat (glucosamine-6-phosphate [1]) [s⁻¹] | KM (glucosamine-6-phosphate [2]) [µM] | self-cleavage kobs at 40 uM GlcN6P (glucosamine-6-phosphate [3]) [s⁻¹] | self-cleavage kobs at 160 uM GlcN6P (glucosamine-6-phosphate [4]) [s⁻¹] | self-cleavage kobs at 640 uM GlcN6P (glucosamine-6-phosphate [5]) [s⁻¹] | self-cleavage kobs at 2500 uM GlcN6P (glucosamine-6-phosphate [6]) [s⁻¹] | self-cleavage kobs at 10000 uM GlcN6P (glucosamine-6-phosphate [7]) [s⁻¹]
1 | G29C A42G | 0.00279 ± 0.00031 | 1790 ± 300 | 6.95e-05 ± 1e-05 | 0.000209 ± 4e-05 | 0.000724 ± 0.00013 | 0.00144 ± 0.00025 | 0.00253 ± 0.00032
2 | G29A U49G | 6e-05 ± 8e-06 |  |  |  | 4.72e-05 ± 1.7e-05 | 4.32e-05 ± 1.4e-05 | 6.26e-05 ± 1.1e-05
3 | U30G U46A | 0.000655 ± 7e-05 | 3710 ± 930 |  |  |  | 0.000252 ± 5.8e-05 | 0.000483 ± 6.6e-05
4 | G29U U57C | 6.81e-05 ± 7.7e-06 | 3360 ± 1100 |  |  |  | 2.73e-05 ± 7.7e-06 | 5.13e-05 ± 6.5e-06
5 | G29U C58U | 0.000107 ± 1.1e-05 | 3710 ± 980 |  |  |  | 4.57e-05 ± 9.1e-06 | 7.71e-05 ± 8.8e-06
6 | G29U C61A | 1.26e-05 ± 2.3e-06 |  | < 1e-05 |  |  |  | 
7 | G29C A33G | 1.09e-05 ± 3.1e-06 |  |  |  |  |  | 
8 | G29C A33C | < 1e-05 |  |  |  | < 1e-05 |  | 
9 | U30A G37C | < 1e-05 |  | < 1e-05 | < 1e-05 | < 1e-05 |  | 
10 | U30A C58G | 5.56e-05 ± 1.8e-05 |  |  |  |  | 8.28e-05 ± 2.5e-05 | 4.77e-05 ± 1.1e-05
11 | G29U A64G | 0.00507 ± 0.0025 |  | 0.000212 ± 3.2e-05 | 0.000495 ± 0.00011 | 0.000939 ± 0.0002 | 0.00221 ± 0.00045 | 0.00594 ± 0.00078
12 | G29U C71G | 0.000186 ± 4.6e-05 |  | 3.23e-05 ± 9.4e-06 | 6.19e-05 ± 9.3e-06 | 8.34e-05 ± 7.2e-06 | 0.000186 ± 2.6e-05 | 0.000186 ± 1.9e-05
13 | U30G C71A | 0.00126 ± 0.0004 | 1140 ± 560 | 7.85e-05 ± 1.2e-05 | 0.000138 ± 2.2e-05 | 0.000344 ± 6.7e-05 | 0.00096 ± 0.00014 | 0.00119 ± 0.00018
14 | U30G A48U | 7.56e-05 ± 6e-06 | 1040 ± 340 | < 1e-05 | < 1e-05 |  | 5.84e-05 ± 1.2e-05 | 6.65e-05 ± 1.1e-05
15 | G29A U45C | 0.000385 ± 7.7e-05 | 2000 ± 720 |  | 3.6e-05 ± 1.4e-05 | 8.28e-05 ± 1.4e-05 | 0.000273 ± 4.1e-05 | 0.000293 ± 5e-05
16 | U30C A33U | 1.74e-05 ± 7.2e-07 | 944 ± 280 |  |  |  |  | 
17 | U30A G40A | 0.0022 ± 0.0011 |  | 4.53e-05 ± 1.6e-05 | 7.47e-05 ± 1.6e-05 | 0.000134 ± 5.6e-05 | 0.000927 ± 0.0002 | 0.0014 ± 0.00025
18 | U30A A52U C70U | 7.84e-05 ± 3.9e-06 | 89.4 ± 24 |  | 4.9e-05 ± 1.3e-05 | 7.62e-05 ± 1.7e-05 | 7.31e-05 ± 1.4e-05 | 7.39e-05 ± 2.7e-05

Row | Variant | kcat (glucosamine-6-phosphate [1]) [s⁻¹] | KM (glucosamine-6-phosphate [2]) [µM] | self-cleavage kobs at 40 uM GlcN6P (glucosamine-6-phosphate [3]) [s⁻¹] | self-cleavage kobs at 160 uM GlcN6P (glucosamine-6-phosphate [4]) [s⁻¹] | self-cleavage kobs at 640 uM GlcN6P (glucosamine-6-phosphate [5]) [s⁻¹] | self-cleavage kobs at 2500 uM GlcN6P (glucosamine-6-phosphate [6]) [s⁻¹] | self-cleavage kobs at 10000 uM GlcN6P (glucosamine-6-phosphate [7]) [s⁻¹]
19 | U30A U47A | 0.00539 ± 0.0011 | 3150 ± 930 |  | 0.000206 ± 5.9e-05 | 0.000968 ± 0.00012 | 0.0025 ± 0.00032 | 0.00373 ± 0.00086
20 | G29A A48C | 3.13e-05 ± 8.9e-06 |  |  |  |  | 3.4e-05 ± 1.6e-05 | 
21 | U30G G38U | < 1e-05 | 87.6 ± 41 |  |  |  |  | 
22 | U30C A53C | 3.34e-05 ± 6.8e-06 |  |  | < 1e-05 |  | 3.87e-05 ± 9.7e-06 | 2.78e-05 ± 9e-06
23 | G29U C50A G60U | 1e-05 ± 4.9e-06 |  |  |  |  | < 1e-05 | 
24 | U31A A48U | 9.44e-05 ± 4.1e-05 |  |  |  | 4.25e-05 ± 1.5e-05 | 5.43e-05 ± 1.6e-05 | 0.000133 ± 4.7e-05
25 | U30A G32A | 0.00147 ± 0.00062 |  |  | 0.000109 ± 2.5e-05 | 0.000192 ± 3.2e-05 | 0.000485 ± 9.6e-05 | 0.0012 ± 0.00022
26 | G29U U31C | 0.000449 ± 0.00016 |  |  | 4.01e-05 ± 1.3e-05 | 9.18e-05 ± 8.9e-06 | 0.00015 ± 1.8e-05 | 0.000407 ± 3.7e-05
27 | U30A U57A | 6.66e-05 ± 1.8e-05 |  | < 1e-05 |  | 3.87e-05 ± 1.5e-05 | 3.73e-05 ± 1.2e-05 | 6.84e-05 ± 1.4e-05
28 | U30A U57G | 2.86e-05 ± 9.5e-06 |  |  |  |  | 3.99e-05 ± 1.7e-05 | 
29 | U30C C50U | < 1e-05 |  |  |  |  |  | 
30 | U30C C50G | 0.000183 ± 3.9e-05 |  | 0.000126 ± 3.1e-05 | 0.000338 ± 0.00011 | 0.000179 ± 4.8e-05 | 0.000149 ± 3.8e-05 | 0.000318 ± 9.9e-05
31 | U30A C50A A52G | < 1e-05 | 39.4 ± 20 |  |  | < 1e-05 |  | < 1e-05
32 | G29U U65G | 0.00182 ± 0.0005 | 4450 ± 1800 | 3.41e-05 ± 1.4e-05 | 8.11e-05 ± 1.6e-05 | 0.000188 ± 3e-05 | 0.000739 ± 0.0001 | 0.00124 ± 0.00017
33 | G29U U65A | 0.000516 ± 4.5e-05 | 2110 ± 340 |  | 3.8e-05 ± 1.4e-05 | 0.000114 ± 1.9e-05 | 0.000323 ± 5.9e-05 | 0.000411 ± 6e-05
34 | G29A G37C | 1.28e-05 ± 1.4e-06 |  |  |  |  |  | 
35 | G29A C50A | 1.1e-05 ± 3.2e-06 |  |  |  |  |  | 
36 | U30C G66A C67U | 6.3e-05 ± 4e-06 | 2940 ± 580 |  |  |  | 2.96e-05 ± 1.2e-05 | 4.86e-05 ± 1e-05
